In patent publication US20260209316A1 (US Dept. of Health and Human Services, published 2026):
Read-outs that look alike come from different tables or passages of the source.

Legend:
[1] = biological target: T1, full-length Sudan GP (GPFL) (Sudan virus (SUDV), UniProt Q7T9D9 33-650); experiment: ELISA on coated GP
T1 construct: also called Sudan GPFL; GP(S)FL
T1 sequence: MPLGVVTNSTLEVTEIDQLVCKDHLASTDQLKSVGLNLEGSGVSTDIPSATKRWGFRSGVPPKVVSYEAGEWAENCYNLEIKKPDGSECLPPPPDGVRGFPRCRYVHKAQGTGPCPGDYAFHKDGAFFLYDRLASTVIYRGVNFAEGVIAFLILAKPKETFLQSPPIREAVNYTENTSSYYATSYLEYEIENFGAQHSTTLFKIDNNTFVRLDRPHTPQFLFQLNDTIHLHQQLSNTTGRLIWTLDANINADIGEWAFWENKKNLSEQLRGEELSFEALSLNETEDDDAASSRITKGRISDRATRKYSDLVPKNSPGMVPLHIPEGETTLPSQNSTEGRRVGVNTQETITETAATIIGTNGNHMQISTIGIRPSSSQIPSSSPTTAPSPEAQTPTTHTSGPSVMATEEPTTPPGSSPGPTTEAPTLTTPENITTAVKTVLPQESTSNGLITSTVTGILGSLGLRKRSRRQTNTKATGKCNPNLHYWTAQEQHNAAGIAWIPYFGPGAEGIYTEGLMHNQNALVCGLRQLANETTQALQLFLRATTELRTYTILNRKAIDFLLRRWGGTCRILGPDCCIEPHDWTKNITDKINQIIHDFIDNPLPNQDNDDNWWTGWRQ

[2] = biological target: T2, SUDV GP on pseudotyped lentiviral vector (Sudan virus (SUDV), UniProt Q7T9D9 33-676); experiment: cell-based or functional assay
T2 sequence: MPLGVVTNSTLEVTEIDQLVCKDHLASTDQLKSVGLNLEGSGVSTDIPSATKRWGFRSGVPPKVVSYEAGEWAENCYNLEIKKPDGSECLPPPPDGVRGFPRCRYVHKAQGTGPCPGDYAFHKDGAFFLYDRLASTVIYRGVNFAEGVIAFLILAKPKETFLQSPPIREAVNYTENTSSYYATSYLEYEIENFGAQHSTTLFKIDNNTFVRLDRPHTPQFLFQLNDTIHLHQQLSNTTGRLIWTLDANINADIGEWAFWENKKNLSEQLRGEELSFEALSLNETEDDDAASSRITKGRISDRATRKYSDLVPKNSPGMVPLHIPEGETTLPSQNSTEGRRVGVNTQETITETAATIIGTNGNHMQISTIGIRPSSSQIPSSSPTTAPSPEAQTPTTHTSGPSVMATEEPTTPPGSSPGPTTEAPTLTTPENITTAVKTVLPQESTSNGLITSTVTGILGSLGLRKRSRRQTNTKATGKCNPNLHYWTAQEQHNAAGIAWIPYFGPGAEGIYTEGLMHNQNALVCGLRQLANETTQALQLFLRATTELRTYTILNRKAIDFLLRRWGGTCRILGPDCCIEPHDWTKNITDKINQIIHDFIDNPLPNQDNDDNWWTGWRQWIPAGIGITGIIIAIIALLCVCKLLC

[3] = biological target: T1, full-length Sudan GP (GPFL); experiment: BLI, Fab, pH 5.3
[4] = biological target: T1, full-length Sudan GP (GPFL); experiment: BLI, Fab, pH 7.4
[5] = biological target: T1, full-length Sudan GP (GPFL); experiment: ELISA on coated GP; remark: listed apart in the source
[6] = biological target: T3, full-length Zaire GP (GPFL) (Ebola (Zaire) virus (EBOV), UniProt Q05320 33-632); experiment: ELISA on coated GP
T3 construct: also called Zaire GPFL; GP(Z)FL
T3 sequence: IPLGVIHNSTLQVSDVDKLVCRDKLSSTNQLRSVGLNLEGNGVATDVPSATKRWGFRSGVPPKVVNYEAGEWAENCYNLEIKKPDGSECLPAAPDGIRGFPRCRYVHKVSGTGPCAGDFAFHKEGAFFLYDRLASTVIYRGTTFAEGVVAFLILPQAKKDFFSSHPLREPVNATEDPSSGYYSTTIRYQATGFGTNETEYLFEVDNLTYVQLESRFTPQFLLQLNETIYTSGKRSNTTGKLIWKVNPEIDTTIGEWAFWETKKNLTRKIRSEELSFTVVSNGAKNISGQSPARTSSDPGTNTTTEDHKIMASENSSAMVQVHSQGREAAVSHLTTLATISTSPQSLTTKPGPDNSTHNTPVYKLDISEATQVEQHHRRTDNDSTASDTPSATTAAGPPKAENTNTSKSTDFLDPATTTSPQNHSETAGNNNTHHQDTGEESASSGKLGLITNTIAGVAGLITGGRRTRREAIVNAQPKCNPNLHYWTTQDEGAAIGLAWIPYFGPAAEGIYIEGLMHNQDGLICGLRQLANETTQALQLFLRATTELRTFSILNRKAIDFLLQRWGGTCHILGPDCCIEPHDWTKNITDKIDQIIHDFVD

[7] = biological target: T2, SUDV GP on pseudotyped lentiviral vector; experiment: cell-based or functional assay; remark: listed apart in the source
[8] = biological target: T4, EBOV GP on pseudotyped lentiviral vector (Ebola (Zaire) virus (EBOV), UniProt Q05320 33-676); experiment: cell-based or functional assay
T4 sequence: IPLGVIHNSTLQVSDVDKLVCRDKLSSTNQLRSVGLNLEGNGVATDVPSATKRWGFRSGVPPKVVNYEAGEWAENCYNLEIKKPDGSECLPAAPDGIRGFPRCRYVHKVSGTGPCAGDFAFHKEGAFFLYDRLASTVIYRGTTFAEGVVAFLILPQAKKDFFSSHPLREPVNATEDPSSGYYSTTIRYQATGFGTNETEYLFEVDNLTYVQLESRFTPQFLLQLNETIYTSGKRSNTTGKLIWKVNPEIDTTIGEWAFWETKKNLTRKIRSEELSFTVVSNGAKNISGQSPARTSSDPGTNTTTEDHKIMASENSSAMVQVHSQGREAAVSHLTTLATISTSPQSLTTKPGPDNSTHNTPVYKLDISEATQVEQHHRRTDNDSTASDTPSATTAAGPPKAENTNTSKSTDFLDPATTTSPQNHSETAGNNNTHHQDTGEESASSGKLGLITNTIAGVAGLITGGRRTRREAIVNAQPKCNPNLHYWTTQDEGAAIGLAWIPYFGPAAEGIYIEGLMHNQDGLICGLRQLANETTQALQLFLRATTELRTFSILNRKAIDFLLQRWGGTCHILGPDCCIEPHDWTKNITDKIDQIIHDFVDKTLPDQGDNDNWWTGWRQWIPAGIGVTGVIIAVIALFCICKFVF

[9] = biological target: T3, full-length Zaire GP (GPFL); experiment: ELISA on coated GP; remark: listed apart in the source
[10] = biological target: T4, EBOV GP on pseudotyped lentiviral vector; experiment: cell-based or functional assay; remark: listed apart in the source
[11] = biological target: T1, full-length Sudan GP (GPFL); experiment: ELISA on coated GP; remark: listed apart in the source
[12] = biological target: T2, SUDV GP on pseudotyped lentiviral vector; experiment: cell-based or functional assay; remark: listed apart in the source

B1: antibody 291S (antibody, V domains shown)
VH: QVQLQESGPGLVKPSQTLSLTCTVSGGSFSSGFYWSWIRQRPGKGLEWVGYTYYSGSTYYNPSLQSRVTISVDTSKNQFSLNLSSVTAADTAVYHCARADYGGLFDYWGQGILVTVSS
VL: QSVLTQPSSLSASPGASASLTCTLRSGINVGTYRIFWYQQKPGSPPQFLLRYNSDSDKQQGSGVPSRFSGSKDASANAGILLISGLQSEDEADYYCMIWHTSAWVFGGGTKLTVL
[1]
  EC50: 0.0565 µg/mL
[2]
  IC50, microneutralization of GP-pseudotyped lentiviral vector on HEK293 cells: 2.89 µg/mL

B2: Fab generated from 545S (Fab, V domains shown)
VH: QVQLQESGPGLVKPSQTLSLTCTVSGGSISRAGSYWSWIRQHPGKGLEWIGYISYSGSTYYNPSLESRVTMSLDTSKSQFSLKLSSVTAADTAVYYCAREDRSGFYGLDVWGQGTTVTVSS
VL: QSVLTQPSSLSASPGATASLTCTLRSGINVDTYRIYWYQQKPGSPPQYLLRYKSDSDKHQGSGVPSRFSGSKDASANAGILLISGLQSADEADYYCMIWHSGAWVFGGGTKLTVQ
notes: also called 545S Fab
[3]
  Kd: 1.97 nM
  koff: 0.000147 s⁻¹
  kon: 74300 M⁻¹ s⁻¹
[4]
  Kd: 1.26 nM
  koff: 0.000125 s⁻¹
  kon: 99200 M⁻¹ s⁻¹

B3: antibody 380L (antibody, V domains shown)
VH: EVQLVESGGGLVQPGGSLTLSCAASGFTFGDYVMHWVRQVPGRGLEWLSAVSWSGYTTYSADSVKGRFTISRDNAKNSLYLQMSRLGTADTGLYYCVTLIGAIGIRDSFDAWGRGVLVTVSS
VL: QSVLTQPPSMSGAPGQRVTVSCTGSSSNIGAGNYVQWYQQLPGTAPKVLIYQTDKRPSGISDRFSGSKSGTSASLTISGLQSEDEADYYCQVYDSSLNGWVFGGGTRLTVL
notes: also called 380L mAb; mAb 380L
[5]
  EC50: 0.0195 µg/mL
[6]
  EC50: 0.0398 µg/mL
[7]
  IC50, microneutralization of GP-pseudotyped lentiviral vector on HEK293 cells: 0.395 µg/mL
[8]
  IC50, microneutralization of GP-pseudotyped lentiviral vector on HEK293 cells: 0.756 µg/mL

B4: antibody 545S (antibody, V domains shown)
VH: QVQLQESGPGLVKPSQTLSLTCTVSGGSISRAGSYWSWIRQHPGKGLEWIGYISYSGSTYYNPSLESRVTMSLDTSKSQFSLKLSSVTAADTAVYYCAREDRSGFYGLDVWGQGTTVTVSS
VL: QSVLTQPSSLSASPGATASLTCTLRSGINVDTYRIYWYQQKPGSPPQYLLRYKSDSDKHQGSGVPSRFSGSKDASANAGILLISGLQSADEADYYCMIWHSGAWVFGGGTKLTVQG
notes: also called 545S mAb
[1]
  EC50: 0.0338 µg/mL
[2]
  IC50, microneutralization of GP-pseudotyped lentiviral vector on HEK293 cells: 0.624 µg/mL

B5: antibody 316L (antibody, V domains shown)
VH: EERLVESGGGLVQPGGSLRLSCAASGFTFGDYAMHWVRQVPGKSLEWLSGISWSGYTTYSADSVKGRFTISRDNAKNSLYLQMNRLRPEDTGLYYCVTLIGAIGIKDSLDVWGRGVLVTVSS
VL: QSVLTQPPSVSGAPGQRVTVSCSGSSSNIGAGNYVQWYQQLPGTAPKVLIYQTEKRPSGTSDRFSGSKSDTSASLTINGLQSEDEADYYCQVYDSNLNGWVFGGGTRLTVLG
notes: also called 316L mAb; mAb 316L
[5]
  EC50: 0.0175 µg/mL
[6]
  EC50: 0.0441 µg/mL
[7]
  IC50, microneutralization of GP-pseudotyped lentiviral vector on HEK293 cells: 0.284 µg/mL
[8]
  IC50, microneutralization of GP-pseudotyped lentiviral vector on HEK293 cells: 1.77 µg/mL

B6: antibody mAb114 (antibody, V domains shown)
VH: EVQLVESGGGLIQPGGSLRLSCAASGFALRMYDMHWVRQTIDKRLEWVSAVGPSGDTYYADSVKGRFAVSRENAKNSLSLQMNSLTAGDTAIYYCVRSDRGVAGLFDSWGQGILVTVSS
VL: DIQMTQSPSSLSASVGDRITITCRASQAFDNYVAWYQQRPGKVPKLLISAASALHAGVPSRFSGSGSGTHFTLTISSLQPEDVATYYCQNYNSAPLTFGGGTKVEIK
[6]
  EC50: 0.0239 µg/mL
[9]
  EC50: 0.02 µg/mL
[8]
  IC50, microneutralization of GP-pseudotyped lentiviral vector on HEK293 cells: 0.152 µg/mL
[10]
  IC50, microneutralization of GP-pseudotyped lentiviral vector on HEK293 cells: 0.18 µg/mL

B7: antibody 16F6 (antibody, V domains shown)
VH: EVQLVESGGGLVTPGGSLKLSCAASGFAFNYYDMFWVRQNTEKRLEWVAYINSGGGNTYYPDTVKGRFTISRDNAKKTLFLQMSSLRSEDTAMYYCARQLYGNSFFDYWGQGTSLTVSA
VL: DIVMTQSHKFMSTSVGDRVTITCKASQDVTTAVAWYQQKPGHSPKLLIYWASTRHTGVPDRFTGSGSGTDFTLTLNSVQAEDLALYYCQQHYSTPLTFGAGTKLELK
[5]
  EC50: 0.068 µg/mL
[11]
  EC50: 0.16 µg/mL
[7]
  IC50, microneutralization of GP-pseudotyped lentiviral vector on HEK293 cells: 0.068 µg/mL
[12]
  IC50, microneutralization of GP-pseudotyped lentiviral vector on HEK293 cells: 0.04 µg/mL
